# Assay results: the PETadex activity labels (doi:10.1038/s41467-023-40233-w)
# Substrate: pcPET (post-consumer)
# Experiment: Proxy for plastic degradation [Released monomer concentration (HPLC/LC-MS) (TPA+MHET+BHET)]
# Settings: pH 9; 40 °C; 24 h
row,Protein,Proxy for plastic degradation [µM]
1,unnamed (protein) MLSFLRSTGRPERRRASLPALLLFTAALVASGLTAAPAAQAADNPYQRGPDPTNASIEAATGPFAVGTQPIVGASGFGGGQIYYPTDTSQTYGAVVIVPGFISVWAQLNWLGPRLASQGFVVIGIETSVITDLPDPRGDQALAALDWATTRSPVASRIDRTRLAAAGWSMGGGGLRRAALQRPSLKAIVGMAPWNGERNWSAVTVPTLFFGGSSDAVASPNDHAKPFYNSITRAEKDYIELRNADHFFPNSANTTMAKYFISWLKRWVDNDTRYTQFLCPGPSTGLFAPVSASMNTCPF,10
2,unnamed (protein) MLSFLRSTGRPERRRASLPALLLFTAALVASGLTAAPAAQAADNPYQRGPDPTNASIEAATGPFAVGTQPIVGASGFGGGQIYYPTDTSQTYGAVVIVPGFISVWAQLNWLGPRLASQGFVVIGIETSVITDLPDPRGDQALAALDWATTRSPVASRIDRTRLAAAGWSMGGGGLRRAALQRPSLKAIVGMAPWNGEKNWSAVTVPTLFFGGSSDAVASPNDHAKPFYNSITRAEKDYIELRNADHFFPTSANTTMAKYFISWLKRWVDNDTRYTQFLCPGPSTGLFAPVSASMNTCPF,950
3,unnamed (protein) MLSFLRSTGRPERRRASLPALLLFTAALVASGLTAAPAAQAADNPYQRGPDPTNASIEAATGPFAVGTQPIVGASGFGGGQIYYPTDTSQTYGAVVIVPGFISVWAQLNWLGPRLASQGFVVIGIETSVITDLPDPRGDQALAALDWATTRSPVASRIDRTRLAAAGWSMGGGGLRRAALQRPSLKAIVGMTPWNGERNWSAVTVPTLFFGGSSDAVASPNDHAKPFYNSITRAEKDYIELRNADHFFPTSANTTMAKYFISWLKRWVDNDTRYTQFLCPGPSTGLFAPVSASMNTCPF,495
4,unnamed (protein) MLSFLRSTGRPERRRASLPALLLFTAALVASGLTAAPAAQAADNPYQRGPDPTNASIEAATGPFAVGTQPIVGASGFGGGQIYYPTDTSQTYGAVVIVPGFISVWAQLNWLGPRLASQGFVVIGIETSVITDLPDPRGDQALAALDWATTRSPVASRIDRTRLAAAGWSMGGGGLRRAALQRPSLKAIVGMAPWNGERNWSAVTVPTLFFGGSSDAVASPNDHAKPFYNSITAAEKDYIELRNADHFFPTSANTTMAKYFISWLKRWVDNDTRYTQFLCPGPSTGLFAPVSASMNTCPF,715
5,unnamed (protein) MLSFLRSTGRPERRRASLPALLLFTAALVASGLTAAPAAQAADNPYQRGPDPTNASIEAATGPFAVGTQPIVGASGFGGGQIYYPTDTSQTYGAVVIVPGFISVWAQLNWLGPRLASQGFVVIGIETSVITDLPDPRGDQALAALDWATTRSPVASRIDRTRLAAAGWSMGGGGLRRAALQRPSLKAIVGMAPWNGERNWSAVTVPTLFFGGSSDAVASPNDHAKPFYNSITRAEKDYIELRNADHFFPTSNNTTMAKYFISWLKRWVDNDTRYTQFLCPGPSTGLFAPVSASMNTCPF,530
6,unnamed (protein) MLSFLRSTGRPERRRASLPALLLFTAALVASGLTAAPAAQAADNPYQRGPDPTNASIEAATGPFAVGTQPIVGASGFGGGQIYYPTDTSQTYGAVVIVPGFISVWAQLNWLGPRLASQGFVVIGIETSTITDLPDPRGDQALAALDWATTRSPVASRIDRTRLAAAGWSMGGGGLRRAACQRPSLKAIVGMAPWNGEKNWSCVTVPTLFFGGSSDAVASPNDHAKPFYNSITRAEKDYIELCNADHFFPTSANTTMAKYFISWLKRWVDNDTRYTQFLCPGPSTGLFAPVCASMNTCPF,1200
7,unnamed (protein) MLSFLRSTGRPERRRASLPALLLFTAALVASGLTAAPAAQAADNPYQRGPDPTNASIEAATGPFAVGTQPIVGASCFGGGQIYYPTDTSQTYGAVVIVPGFISVWAQLNWLGPRLASQGFVVIGIETSVITDLPDPRGDQALCALDWATTRSPVASRIDRTRLAAAGWSMGGGGLRRAALQRPSLKAIVGMAPWNGERNWSAVTVPTLFFGGSSDAVASPNDHAKPFYNSITRAEKDYIELRNADHFFPTSANTTMAKYFISWLKRWVDNDTRYTQFLCPGPSTGLFAPVSASMNTCPF,295
8,unnamed (protein) MLSFLRSTGRPERRRASLPALLLFTAALVASGLTAAPAAQAADNPYQRGPDPTNASIEAATGPFAVGTQPIVGASGFGGGQIYYPRDTSQTYGAVVIVPGFISVWAQLNWLGPRLASQGFVVIGIETSVITDLPDPRGDQALAALDWATTRSPVASRIDRTRLAAAGWSMGGGGLRRAALQRPSLKAIVGMAPWNGERNWSAVTVPTLFFGGSSDAVASPNDHAKPFYNSITRAEKDYIELRNADHFFPTSANTTMAKYFISWLKRWVDNDTRYTQFLCPGPSTGLFAPVSASMNTCPF,485
9,unnamed (protein) MLSFLRSTGRPERRRASLPALLLFTAALVASGLTAAPAAQAADNPYQRGPDPTNASIEAATGPFAVGTQPIVGASGFGGGQIYYPTDTSQTYGAVVIVPGFISVWAQLNWLGPRLASQGFVVIGIETSVITDLPDSRGDQALAALDWATTRSPVASRIDRTRLAAAGWSMGGGGLRRAALQRPSLKAIVGMAPWNGERNWSAVTVPTLFFGGSSDAVASPNDHAKPFYNSITRAEKDYIELRNADHFFPTSANTTMAKYFISWLKRWVDNDTRYTQFLCPGPSTGLFAPVSASMNTCPF,680
10,unnamed (protein) MLSFLRSTGRPERRRASLPALLLFTAALVASGLTAAPAAQAADNPYQRGPDPTNASIEAATGPFAVGTQPIVGASGFGGGQIYYPTDTSQTYGAVVIVPGFISVWAQLNWLGPRLASQGFVVIGIETSVITDLPDPRGDQALAALDWATTRSPVRSRIDRTRLAAAGWSMGGGGLRRAACQRPSLKAIVGMAPWNGERNWSCVTVPTLFFGGSSDAVASPNDHAKPFYNSITRAEKDYIELCNADHFFPTSANTTMAKYFISWLKRWVDNDTRYTQFLCPGPSTGLFAPVCASMNTCPF,948
11,unnamed (protein) MLSFLRSTGRPERRRASLPALLLFTAALVASGLTAAPAAQAADNPYQRGPDPTNASIEAATGPFAVGTQPIVGASGFGGGQIYYPTDTSQTYGAVVIVPGFISVWAQLNWLGPRLASQGFVVIGIETSVITDLPDPRGDQALAALDWATTRSPVASRIDRTRLAAAGWSMGGGGLRRAALQRPSLKAIVGMAPWNLERNWSAVTVPTLFFGGSSDAVASPNDHAKPFYNSITRAEKDYIELRNADHFFPTSANTTMAKYFISWLKRWVDNDTRYTQFLCPGPSTGLFAPVSASMNTCPF,520
12,unnamed (protein) MLSFLRSTGRPERRRASLPALLLFTAALVASGLTAAPAAQAADNPYQRGPDPTNASIEAATGPFAVGTQPIVGASGFGGGQIYYPTDTSQTYGAVVIVPGFISVWAQLNWLGPRLASQGFVVIGIETSVITDLPDPRGDQALAALDWATTRSPVASRIDRTRLAAAGWSMGGGGLRRAALQRPSLKAIVGMAPWNGERNWSAVTVPTLFFGGSSDAVASPNDHAKPFYNSITRAEKDYIELCNADHFFPTSANTTMAKYFISWLKRWVDNDTRYTQFLCPGPSTGLFAPVCASMNTCPF,890
13,unnamed (protein) MLSFLRSTGRPERRRASLPALLLFTAALVASGLTAAPAAQAADNPYQRGPDPTNASIEAATGPFAVGTQPIVGASGFGGGQIYYPTDTSQTYGAVVIVPGFISVWAQLNWLGPRLASQGFVVIGIETSVITDLPDPRGDQALAALDWATTRSPVASAIDRTRLAAAGWSMGGGGLRRAALQRPSLKAIVGMAPWNGERNWSAVTVPTLFFGGSSDAVASPNDHAKPFYNSITRAEKDYIELRNADHFFPTSANTTMAKYFISWLKRWVDNDTRYTQFLCPGPSTGLFAPVSASMNTCPF,225
14,unnamed (protein) MLSFLRSTGRPERRRASLPALLLFTAALVASGLTAAPAAQAADNPYQRGPDPTNASIEAATGPFAVGTQPIVGASGFGGGQIYYPTDTSQTYGAVVIVPGFISVWAQLAWLGPRLASQGFVVIGIETSVITDLPDPRGDQALAALDWATTRSPVASRIDRTRLAAAGWSMGGGGLRRAALQRPSLKAIVGMAPWNGERNWSAVTVPTLFFGGSSDAVASPNDHAKPFYNSITRAEKDYIELRNADHFFPTSANTTMAKYFISWLKRWVDNDTRYTQFLCPGPSTGLFAPVSASMNTCPF,720
15,unnamed (protein) MLSFLRSTGRPERRRASLPALLLFTAALVASGLTAAPAAQAADNPYQRGPDPTNASIEAATGPFAVGTQPIVGASGFGGGQIYYPTDTSQTYGAVVIVPGFISVWASLNWLGPRLASQGFVVIGIETSVITDLPDPRGDQALAALDWATTRSPVASRIDRTRLAAAGWSMGGGGLRRAALQRPSLKAIVGMAPWNGERNWSAVTVPTLFFGGSSDAVASPNDHAKPFYNSITRAEKDYIELRNADHFFPTSANTTMAKYFISWLKRWVDNDTRYTQFLCPGPSTGLFAPVSASMNTCPF,620
16,unnamed (protein) MLSFLRSTGRPERRRASLPALLLFTAALVASGLTAAPAAQAADNPYQRGPDPTNASIEAATGPFAVGTQPIVGASGFGGGQIYYPTDTSQTYGAVVIVPGFISVWAQLNWLGPRLASQGFVVIGIETSVITDYPDPRGDQALAALDWATTRSPVASRIDRTRLAAAGWSMGGGGLRRAALQRPSLKAIVGMAPWNGERNWSAVTVPTLFFGGSSDAVASPNDHAKPFYNSITRAEKDYIELRNADHFFPTSANTTMAKYFISWLKRWVDNDTRYTQFLCPGPSTGLFAPVSASMNTCPF,405

# Same assay, conditions: pH 9; 60 °C; 6 h
row,Protein,Proxy for plastic degradation [µM]
1,unnamed (protein) MLSFLRSTGRPERRRASLPALLLFTAALVASGLTAAPAAQAADNPYQRGPDPTNASIEAATGPFAVGTQPIVGASGFGGGQIYYPTDTSQTYGAVVIVPGFISVWAQLNWLGPRLASQGFVVIGIETSTITDLPDPRGDQALAALDWATTRSPVASRIDRTRLAAAGWSMGGGGLRRAACQRPSLKAIVGMAPWNGEKNWSCVTVPTLFFGGSSDAVASPNDHAKPFYNSITRAEKDYIELCNADHFFPTSANTTMAKYFISWLKRWVDNDTRYTQFLCPGPSTGLFAPVCASMNTCPF,1020
2,unnamed (protein) MLSFLRSTGRPERRRASLPALLLFTAALVASGLTAAPAAQAADNPYQRGPDPTNASIEAATGPFAVGTQPIVGASGFGGGQIYYPTDTSQTYGAVVIVPGFISVWAQLNWLGPRLASQGFVVIGIETSVITDLPDPRGDQALAALDWATTRSPVRSRIDRTRLAAAGWSMGGGGLRRAACQRPSLKAIVGMAPWNGERNWSCVTVPTLFFGGSSDAVASPNDHAKPFYNSITRAEKDYIELCNADHFFPTSANTTMAKYFISWLKRWVDNDTRYTQFLCPGPSTGLFAPVCASMNTCPF,360
